# Assay results taken from patent US20250276075A1, “METHODS OF TREATING AXL-EXPRESSING CANCERS WITH ANTI-AXL ANTIBODIES, ANTIBODY FRAGMENTS AND THEIR IMMUNOCONJUGATES” (BIOATLA, INC., priority 2020, published 2025).
# Where a chain is given by its changes, count along the chain named. Numbers in names are those of the source.
# B1: HC-S103M (antibody, V domains shown)
# VH: EVQLVQSGAEVKKPGATVKISCKVSGYSFTGHTMNWIRQPPGKGLEWIGLIKPSNGGTSYNQKFKGRVTISADKSISTAYLQWSSLKASDTAMYYCAHGHYEMYFAMDYWGQGTLVTVSS
# VL: DIQMTQSPSSLSASVGDRVTITCKASQDVSSAVAWYQQKPGQAPRLLIYWASTRHTGVPSRFSGSGSGTEFTLTISSLQPDDFATYYCQEHFSTPLTFGQGTKVEIK
# B2: HC-E102G (antibody, V domains shown)
# VH: B1 VH with E102G, M103S
# VL: B1 VL
# B3: HC-E102I (antibody, V domains shown)
# VH: B1 VH with E102I, M103S
# VL: B1 VL
# B4: HC-F105N (antibody, V domains shown)
# VH: B1 VH with M103S, F105N
# VL: B1 VL
# B5: HC-F105S (antibody, V domains shown)
# VH: B1 VH with M103S, F105S
# VL: B1 VL
# B6: HC-A106D (antibody, V domains shown)
# VH: B1 VH with M103S, A106D
# VL: B1 VL
# B7: HC-H100W (antibody, V domains shown)
# VH: B1 VH with H100W, M103S
# VL: B1 VL
# B8: HC-Y104C (antibody, V domains shown)
# VH: B1 VH with M103S, Y104C
# VL: B1 VL
# B9: HC-S103N (antibody, V domains shown)
# VH: B1 VH with M103N
# VL: B1 VL
# B10: HC-E102F (antibody, V domains shown)
# VH: B1 VH with E102F, M103S
# VL: B1 VL
# B11: HC-E102A (antibody, V domains shown)
# VH: B1 VH with E102A, M103S
# VL: B1 VL
# B12: HC-A106G (antibody, V domains shown)
# VH: B1 VH with M103S, A106G
# VL: B1 VL
# B13: HC-E102M (antibody, V domains shown)
# VH: B1 VH with E102M, M103S
# VL: B1 VL
# B14: HC-Y104E (antibody, V domains shown)
# VH: B1 VH with M103S, Y104E
# VL: B1 VL
# B15: HC-H100E (antibody, V domains shown)
# VH: B1 VH with H100E, M103S
# VL: B1 VL
# B16: HC-T033I (antibody, V domains shown)
# VH: B1 VH with T33I, M103S
# VL: B1 VL
# B17: HC-E102H (antibody, V domains shown)
# VH: B1 VH with E102H, M103S
# VL: B1 VL
# B18: HC-S103Q (antibody, V domains shown)
# VH: B1 VH with M103Q
# VL: B1 VL
# B19: HC-E102D (antibody, V domains shown)
# VH: B1 VH with E102D, M103S
# VL: B1 VL
# B20: HC-W110T (antibody, V domains shown)
# VH: B1 VH with M103S, W110T
# VL: B1 VL
# B21: HC-Y101N (antibody, V domains shown)
# VH: B1 VH with Y101N, M103S
# VL: B1 VL
# B22: HC-H100P (antibody, V domains shown)
# VH: B1 VH with H100P, M103S
# VL: B1 VL
# B23: HC-F105V (antibody, V domains shown)
# VH: B1 VH with M103S, F105V
# VL: B1 VL
# B24: HC-F105T (antibody, V domains shown)
# VH: B1 VH with M103S, F105T
# VL: B1 VL
# B25: HC-Y104P (antibody, V domains shown)
# VH: B1 VH with M103S, Y104P
# VL: B1 VL
# Target: Axl (UniProt P30530)
# Test: ELISA, 1:9 dilution
# Settings: not given
row,Molecule,"Affinity ELISA CPE mutant ratio (1:9, pH 6.0/7.4)"
1,B1,1.81
2,B2,2.68
3,B3,1.7
4,B4,2.64
5,B5,4.54
6,B6,2.51
7,B7,5.91
8,B8,1.74
9,B9,3.18
10,B10,1.36
11,B11,1.69
12,B12,2.2
13,B13,2.36
14,B14,1.8
15,B15,3.62
16,B16,1
17,B17,2.31
18,B18,2.26
19,B19,2.85
20,B20,1.37
21,B21,2.91
22,B22,1.18
23,B23,2.8
24,B24,4.02
25,B25,2.42

# Target: Axl (UniProt P30530)
# Test: ELISA, 1:3 dilution
# Settings: not given
row,Molecule,"Affinity ELISA CPE mutant ratio (1:3, pH 6.0/7.4)"
1,B1,1.78
2,B2,1.8
3,B3,2.02
4,B4,2.36
5,B5,3.9
6,B6,3.39
7,B7,4.94
8,B8,1.84
9,B9,1.07
10,B10,1.88
11,B11,1.54
12,B12,1.52
13,B13,2.08
14,B14,1.32
15,B15,2.77
16,B16,1.59
17,B17,2.08
18,B18,0.912
19,B19,2.67
20,B20,7.47
21,B21,2.17
22,B22,2.58
23,B23,2.43
24,B24,3.46
25,B25,2.54

# Target: T1, Axl (Homo sapiens, UniProt P30530)
# T1 sequence (P30530 26-451 limits assumed): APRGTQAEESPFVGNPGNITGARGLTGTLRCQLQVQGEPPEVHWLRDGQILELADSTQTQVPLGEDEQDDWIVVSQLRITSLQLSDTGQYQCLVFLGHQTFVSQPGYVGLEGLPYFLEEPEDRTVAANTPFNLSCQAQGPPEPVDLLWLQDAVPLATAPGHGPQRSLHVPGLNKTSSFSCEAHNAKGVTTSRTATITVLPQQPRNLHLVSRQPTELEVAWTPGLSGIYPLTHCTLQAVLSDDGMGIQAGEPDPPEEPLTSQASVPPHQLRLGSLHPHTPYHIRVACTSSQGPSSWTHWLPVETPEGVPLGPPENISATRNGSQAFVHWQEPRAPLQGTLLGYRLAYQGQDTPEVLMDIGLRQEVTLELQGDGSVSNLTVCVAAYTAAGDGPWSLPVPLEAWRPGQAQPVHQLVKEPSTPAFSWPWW
# Test: Affinity ELISA of CPE mutant antibodies for binding to Axl at pH 6.0 over pH 7.4
# Settings: heavy chain variable region mutants; 1:3 dilution
# In short: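 Single-point mutant anti-Axl antibody library (CPE) screened by ELISA for binding at pH 6.0 versus pH 7.4, at 1:3 and 1:9 antibody dilutions, in serum with FLAG-tag detection and carbonate (Krebs-Ringer) buffer. Selection criterion: pH 6.0/pH 7.4 binding ratio ≥1.5 at either dilution.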
row,Molecule,"Affinity ELISA CPE mutant ratio (1:3, pH 6.0/7.4)"
1,B1,1.784
2,B2,1.798
3,B3,2.016
4,B4,2.364
5,B5,3.898
6,B6,3.389
7,B7,4.937
8,B8,1.845
9,B9,1.075
10,B10,1.879
11,B11,1.538
12,B12,1.519
13,B13,2.079
14,B14,1.321
15,B15,2.775
16,B16,1.594
17,B17,2.076
18,B18,0.912
19,B19,2.674
20,B20,7.469
21,B21,2.174
22,B22,2.575
23,B23,2.429
24,B24,3.463
25,B25,2.535

# Same assay, conditions: heavy chain variable region mutants; 1:9 dilution
row,Molecule,"Affinity ELISA CPE mutant ratio (1:9, pH 6.0/7.4)"
1,B1,1.806
2,B2,2.677
3,B3,1.696
4,B4,2.642
5,B5,4.545
6,B6,2.506
7,B7,5.908
8,B8,1.741
9,B9,3.179
10,B10,1.363
11,B11,1.687
12,B12,2.196
13,B13,2.363
14,B14,1.796
15,B15,3.623
16,B16,1.005
17,B17,2.315
18,B18,2.256
19,B19,2.853
20,B20,1.372
21,B21,2.907
22,B22,1.179
23,B23,2.801
24,B24,4.021
25,B25,2.416
